This is an account of results in the Human Domainome abundance scans (Beltran et al. 2025).

± gives the uncertainty stated by the source.

B1: Connector enhancer of kinase suppressor of ras 2, residues 9 to 71; numbered along this chain, Q8WXI2 (parent)
chain: SKWSPSQVVDWMKGLDDCLQQYIKNFEREKISGDQLLRITHQELEDLGVSRIGHQELILEAVD

The variants in this data set derive from B1. As to the kind of experiment: abundance fitness (aPCA) (normalised: wild type 0, dead -1); higher = more abundant; growth selection in yeast, the domain comes from the species named. The following applies: Homo sapiens.
On to Q21D, for which the abundance fitness is -0.095 ± 0.035.

Regarding Q21P, the abundance fitness came to 0.038 ± 0.035.

For the variant Q21C, the abundance fitness was -0.022 ± 0.048.

Consider Q21N, for which the abundance fitness was -0.4 ± 0.041.

In the case of Q21K, the abundance fitness is -0.204 ± 0.039.

On to Q21H, for which the abundance fitness was -0.257 ± 0.04.

For Q21Y, the abundance fitness is -0.459 ± 0.066.

On to Q21R, for which the abundance fitness was -0.144 ± 0.026.

On to Q21S, for which the abundance fitness is -0.118 ± 0.024.

P5A: the abundance fitness is -0.055 ± 0.04.

For P5I, the abundance fitness was -0.233 ± 0.062.

As for P5K, the abundance fitness was -0.514 ± 0.048.

As for P5Y, the abundance fitness was 0 ± 0.051.

For the variant P5T, the abundance fitness came to 0.043 ± 0.03.

On to P5N, for which the abundance fitness was 0.005 ± 0.041.

Take P5F: the abundance fitness is -0.161 ± 0.047.

Take P5G: the abundance fitness is -0.37 ± 0.029.

With P5E, the abundance fitness is -0.336 ± 0.042.

Take P5C: the abundance fitness was determined as 0.026 ± 0.041.

Regarding P5Q, the abundance fitness was -0.315 ± 0.058.

Regarding P5S, the abundance fitness was -0.007 ± 0.025.

With P5M, the abundance fitness was -0.377 ± 0.044.

As for P5V, the abundance fitness was -0.047 ± 0.025.

As for P5W, the abundance fitness is -0.095 ± 0.044.

With P5D, the abundance fitness was -0.275 ± 0.049.

Regarding Y22D, the abundance fitness was -0.571 ± 0.037.

Regarding Y22I, the abundance fitness was -0.834 ± 0.085.

For Y22N, the abundance fitness was -0.747 ± 0.062.

As for Y22E, the abundance fitness was -0.753 ± 0.06.

For Y22G, the abundance fitness was -0.702 ± 0.027.

Regarding Y22S, the abundance fitness is -0.742 ± 0.043.

For the variant Y22H, the abundance fitness was -0.542 ± 0.057.

As for Y22K, the abundance fitness is -0.578 ± 0.091.

With Y22A, the abundance fitness was -0.863 ± 0.035.

Consider Y22P, for which the abundance fitness was -0.753 ± 0.08.

For the variant Y22Q, the abundance fitness is -0.636 ± 0.062.

As for Y22L, the abundance fitness is -0.899 ± 0.053.

Regarding Y22R, the abundance fitness is -0.728 ± 0.035.

Regarding W3H, the abundance fitness was -0.772 ± 0.13.

W3A: the abundance fitness was -0.653 ± 0.085.

On to W3C, for which the abundance fitness is -0.713 ± 0.12.

With W3G, the abundance fitness was -0.597 ± 0.04.

Turning to W3N, the abundance fitness is -0.545 ± 0.083.

Turning to W3D, the abundance fitness was -0.393 ± 0.061.

Regarding W3E, the abundance fitness was -0.725 ± 0.15.

Take W3I: the abundance fitness was -0.053 ± 0.28.

W3T: the abundance fitness is -1.05 ± 0.26.

For W3P, the abundance fitness was -0.764 ± 0.16.

Regarding W3S, the abundance fitness was -0.504 ± 0.072.

W3F: the abundance fitness was -0.563 ± 0.067.

With W3Y, the abundance fitness is -0.6 ± 0.084.

Consider W3L, for which the abundance fitness was -0.236 ± 0.048.

For W3R, the abundance fitness was -0.498 ± 0.04.

With W3K, the abundance fitness was -0.409 ± 0.064.

Take Q20S: the abundance fitness was -0.148 ± 0.024.

As to Q20R, the abundance fitness is -0.214 ± 0.024.

Regarding Q20L, the abundance fitness is -0.121 ± 0.023.

In the case of Q20I, the abundance fitness was -0.247 ± 0.063.

Consider Q20W, for which the abundance fitness is -0.133 ± 0.031.

As for Q20Y, the abundance fitness is -0.204 ± 0.042.

As to Q20F, the abundance fitness was -0.179 ± 0.039.

Regarding Q20H, the abundance fitness was determined as 0.049 ± 0.032.

For the variant Q20D, the abundance fitness is -0.259 ± 0.033.

Consider Q20N, for which the abundance fitness was -0.117 ± 0.043.

For Q20E, the abundance fitness is -0.31 ± 0.043.

Regarding Q20C, the abundance fitness is -0.325 ± 0.042.

Take Q20A: the abundance fitness was -0.177 ± 0.028.

In the case of Q20M, the abundance fitness is -0.17 ± 0.029.

For Q20G, the abundance fitness was -0.152 ± 0.023.

In the case of Q20P, the abundance fitness was -0.805 ± 0.051.

Q20K: the abundance fitness was -0.148 ± 0.025.

As for M12R, the abundance fitness is -1.01 ± 0.052.

Consider M12P, for which the abundance fitness is -1 ± 0.068.

For M12V, the abundance fitness is -0.266 ± 0.024.

As to M12A, the abundance fitness was -0.658 ± 0.037.

M12D: the abundance fitness was -0.706 ± 0.05.

For the variant M12K, the abundance fitness is -0.827 ± 0.095.

Turning to M12F, the abundance fitness is -0.096 ± 0.035.

As to M12Q, the abundance fitness is -1.06 ± 0.087.

With M12I, the abundance fitness is -0.165 ± 0.031.

Turning to M12G, the abundance fitness is -0.757 ± 0.037.

For the variant M12L, the abundance fitness is -0.188 ± 0.028.

M12Y: the abundance fitness was -0.386 ± 0.051.

On to M12T, for which the abundance fitness was -0.849 ± 0.072.

With M12S, the abundance fitness is -0.8 ± 0.051.

For M12H, the abundance fitness is -0.766 ± 0.048.

In the case of M12N, the abundance fitness was -1 ± 0.087.

On to S6P, for which the abundance fitness was -0.328 ± 0.038.

As to S6F, the abundance fitness is -0.287 ± 0.038.

As to S6Q, the abundance fitness was -0.003 ± 0.032.

For the variant S6N, the abundance fitness was found to be 0.016 ± 0.04.

On to S6T, for which the abundance fitness turned out to be 0.015 ± 0.033.

On to S6D, for which the abundance fitness is 0.026 ± 0.044.

For the variant S6E, the abundance fitness was -0.033 ± 0.035.

Consider S6M, for which the abundance fitness is -0.043 ± 0.031.

Regarding S6H, the abundance fitness is -0.04 ± 0.044.

As for S6C, the abundance fitness was -0.195 ± 0.037.

As for S6W, the abundance fitness is -0.291 ± 0.04.

For S6V, the abundance fitness is -0.076 ± 0.025.

In the case of S6R, the abundance fitness is -0.043 ± 0.024.

Consider S6G, for which the abundance fitness was -0.052 ± 0.027.

Regarding S6A, the abundance fitness was found to be 0.036 ± 0.023.

Regarding S6Y, the abundance fitness is -0.166 ± 0.034.

For S6I, the abundance fitness is -0.17 ± 0.04.

Turning to D10G, the abundance fitness was -0.122 ± 0.035.

For the variant D10E, the abundance fitness is 0.096 ± 0.029.

D10V: the abundance fitness was -0.327 ± 0.028.

With D10M, the abundance fitness was -0.169 ± 0.031.

As for D10F, the abundance fitness was -0.34 ± 0.041.

On to D10I, for which the abundance fitness is -0.258 ± 0.042.

On to D10P, for which the abundance fitness is -0.929 ± 0.056.

Consider D10R, for which the abundance fitness was -0.176 ± 0.031.

In the case of D10K, the abundance fitness was -0.161 ± 0.039.

In the case of D10T, the abundance fitness is -0.18 ± 0.027.

As for D10L, the abundance fitness was -0.256 ± 0.017.

On to D10N, for which the abundance fitness is -0.087 ± 0.036.

Take D10S: the abundance fitness was -0.127 ± 0.034.

On to L19S, for which the abundance fitness was -0.642 ± 0.037.

Turning to L19V, the abundance fitness is -0.112 ± 0.026.

For L19P, the abundance fitness was -0.602 ± 0.044.

For the variant L19Q, the abundance fitness was -0.604 ± 0.047.

Consider L19I, for which the abundance fitness is -0.102 ± 0.066.

As to L19E, the abundance fitness is -0.74 ± 0.049.

On to L19D, for which the abundance fitness was -0.608 ± 0.042.

In the case of L19Y, the abundance fitness was -0.816 ± 0.085.

With L19A, the abundance fitness is -0.652 ± 0.033.

Turning to L19W, the abundance fitness is -0.936 ± 0.06.

As for L19G, the abundance fitness was -0.68 ± 0.027.

As for L19F, the abundance fitness is -0.548 ± 0.052.

Take L19T: the abundance fitness was -0.508 ± 0.036.

As for L19R, the abundance fitness was -0.763 ± 0.036.

For the variant L19C, the abundance fitness was -0.244 ± 0.034.

L19M: the abundance fitness is -0.2 ± 0.044.

As for L19N, the abundance fitness was -0.593 ± 0.054.

Turning to L19H, the abundance fitness is -0.568 ± 0.061.

Take D17L: the abundance fitness was -0.446 ± 0.027.

For the variant D17C, the abundance fitness was -0.06 ± 0.063.

On to D17W, for which the abundance fitness is -0.497 ± 0.045.

Consider D17Y, for which the abundance fitness was -0.203 ± 0.054.

Regarding D17I, the abundance fitness was -0.4 ± 0.043.

D17A: the abundance fitness was -0.137 ± 0.025.

As for D17R, the abundance fitness is -0.184 ± 0.025.

Consider D17E, for which the abundance fitness was -0.018 ± 0.037.

Turning to D17Q, the abundance fitness is -0.091 ± 0.038.

As for D17G, the abundance fitness is -0.104 ± 0.032.

Consider D17K, for which the abundance fitness was -0.186 ± 0.041.

Regarding D17P, the abundance fitness was -0.051 ± 0.031.

On to D17V, for which the abundance fitness was -0.359 ± 0.028.

In the case of D17M, the abundance fitness is -0.268 ± 0.035.

For D17F, the abundance fitness is -0.181 ± 0.076.

Turning to D17N, the abundance fitness is -0.075 ± 0.057.

For the variant C18S, the abundance fitness was -0.024 ± 0.022.

With C18P, the abundance fitness was -0.239 ± 0.033.

C18I: the abundance fitness is -0.439 ± 0.061.

Regarding C18K, the abundance fitness is -0.301 ± 0.047.

Turning to C18Y, the abundance fitness was -0.877 ± 0.061.

As to C18W, the abundance fitness is -0.991 ± 0.069.

For the variant C18M, the abundance fitness was -0.442 ± 0.042.

For C18T, the abundance fitness was -0.221 ± 0.04.

Take C18G: the abundance fitness was -0.182 ± 0.026.

As to C18N, the abundance fitness was -0.132 ± 0.045.

Turning to C18L, the abundance fitness is -0.885 ± 0.049.

On to C18F, for which the abundance fitness is -0.823 ± 0.077.

For the variant C18D, the abundance fitness was 0.006 ± 0.043.

Regarding C18Q, the abundance fitness was -0.124 ± 0.039.

Consider C18V, for which the abundance fitness is -0.118 ± 0.024.

As to C18R, the abundance fitness is -0.314 ± 0.032.
